Key:
Assay in all cases: two-hybrid
BD-CK2β = BD-CK2β (UniProt P67871)
[1] = molecular target: GAL4-DB-CK2α′ fusion protein (mouse) (UniProt O54833)
BD-CK2α = BD-CK2α (UniProt Q60737)
BD-CKT2 (mouse) = BD-CKT2 (mouse) (UniProt Q8CH19)
BD-CKT2 138-276 (mouse) = BD-CKT2 138-276 (mouse) (UniProt Q8CH19)
BD-CKT2 1-137 (mouse) = BD-CKT2 1-137 (mouse) (UniProt Q8CH19)

UniProt Q60737, sequence (Q60737 whole entry): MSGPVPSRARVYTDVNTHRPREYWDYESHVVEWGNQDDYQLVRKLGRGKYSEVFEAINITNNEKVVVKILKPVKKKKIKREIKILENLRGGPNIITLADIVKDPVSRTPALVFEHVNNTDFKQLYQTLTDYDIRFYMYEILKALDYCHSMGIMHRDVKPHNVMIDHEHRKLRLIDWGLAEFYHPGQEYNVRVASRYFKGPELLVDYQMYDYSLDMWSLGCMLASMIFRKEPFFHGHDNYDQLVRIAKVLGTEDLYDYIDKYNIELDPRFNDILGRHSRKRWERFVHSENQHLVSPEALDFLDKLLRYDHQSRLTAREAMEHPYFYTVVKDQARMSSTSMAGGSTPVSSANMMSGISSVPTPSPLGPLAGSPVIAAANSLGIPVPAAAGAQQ
UniProt P67871, sequence (P67871 whole entry, the tested form may be a part): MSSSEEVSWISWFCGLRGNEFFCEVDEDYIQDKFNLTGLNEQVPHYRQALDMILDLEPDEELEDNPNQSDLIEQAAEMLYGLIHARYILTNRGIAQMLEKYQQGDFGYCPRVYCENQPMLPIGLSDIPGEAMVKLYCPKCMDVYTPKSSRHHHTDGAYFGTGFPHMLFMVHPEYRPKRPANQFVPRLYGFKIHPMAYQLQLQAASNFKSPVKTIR

Molecule | β-Gal activity (BD-CK2β) | β-Gal activity [1] | β-Gal activity (BD-CK2α) | β-Gal activity (BD-CKT2 (mouse)) | β-Gal activity (BD-CKT2 138-276 (mouse)) | β-Gal activity (BD-CKT2 1-137 (mouse))
CKT2 (CK2 Target protein 2), full length, in pACT2 (from UniProt Q8CH19 1-720) (natural protein) | < 0.05 | 5.8 | 1 | – | – | –
CK2α′ as the active (activation) domain fusion (natural protein) MPGPAAGSRARVYAEVNSLRSREYWDYEAHVPSWGNQDDYQLVRKLGRGKYSEVFEAINITNNERVVVKILKPVKKKKIKREVKILENLRGGTNIIKLIDTVKDPVSKTPALVFEYINNTDFKQLYQILTDFDIRFYMYELLKALDYCHSKGIMHRDVKPHNVMIDHQQKKLRLIDWGLAEFYHPAQEYNVRVASRYFKGPELLVDYQMYDYSLDMWSLGCMLASMIFRKEPFFHGQDNYDQLVRIAKVLGTDELYGYLKKYHIDLDPHFNDILGQHSRKRWENFIHSENRHLVSPEALDLLDKLLRYDHQQRLTAKEAMEHPYFYPVVKEQSQPCAENTVLSSGLTAAR | – | – | – | 5.2 | 6.5 | 2.8

Reference: paper PMC2677865
